{"source": "patent US20170028021A1", "about": "“COMPOSITIONS AND METHODS FOR TREATING NEURODEGENERATIVE DISEASE” (MYELIN THERAPEUTICS, INC., priority 2015, published 2017)", "molecules": {"B1": {"name": "BDNF: brain-derived neurotrophic factor, comparison treatment in OP cultures (protein, UniProt P23560 19-247, looked up)", "Neurotrophic factor BDNF …": "APMKEANIRGQGGLAYPGVRTHGTLESVNGPKAGSRGLTSLADTFEHVIEELLDEDQKVRPNEENNKDADLYTSRVMLSSQVPLEPPLLFLLEEYKNYLDAANMSMRVRRHSDPARRGELSVCDSISEWVTAADKKTAVDMSGGTVTVLEKVPVSKGQLKQYFYETKCNPMGYTKEGCRGIDKRHWNSQCRTTQSYVRALTMDSKKRIGWRFIRIDTSCVCTLTIKRGR"}}, "test_system": "primary mouse OPs", "experiment": "Proliferation of oligodendrocyte precursor (OP) cultures, scoring NG2+ and NG2+/BrdU+ cells", "format": "cell-based", "conditions": "TLQP-21 3 μM, AQEE-30 3 μM, BDNF 50 ng/μl, analyzed 48 hours later, vs DMSO", "procedure": "The growth factor VGF was of particular interest because it is reported to be highly expressed in OPs. Furthermore, its upregulation upon exercise activates the anti-depressant response in mammals, and maintains BDNF expression in a VGF-BDNF positive feedback loop. […] VGF is cleaved to produce numerous C-terminal bioactive peptides including TLQP-62, TLQP-21, and AQEE-30, amongst others. As such, oligodendrocyte precursor (OP) cultures were treated with well-characterized peptides that trigger BDNF production TLQP-21 (3 μM), AQEE-30 (3 μM), BDNF (50 ng/μl), or DMSO along with the proliferation marker BrdU and then analyzed 48 hours later by scoring the number of NG2+/BrdU+ cells. In parallel, the total number of NG2+ cells was counted to assess for endogenous proliferation. […] Indeed, VGF protein levels are robust early in the OP differentiation cascade (FIG. 11).\nMouse OPs were isolated from the cortices of PO WT neonates by expansion within mixed glial culture for 8 days, purified, and subsequently differentiated as an OP-enriched culture. At DIV1 post-purification, cells were treated with DMSO, BDNF, VGF AQEE-30 or VGF TLQP-21 at 3 uM and allowed to grow for an additional 48 hrs. […] DAPI stains all nuclei. […] Scale bar, […]. FIG. 10C depicts quantitation of the average dendritic length 48 hrs post-peptide treatment. **P<0.01, n=4 independent coverslips per condition. […]", "data": [{"molecule": "B1", "values": [{"measurement": "total number of NG2+ cells", "value": "no significant differences"}, {"measurement": "total number of proliferating Ng2+/BrdU+ OPs", "setting": "with BrdU", "value": "no significant differences"}]}]}
